Where only a bound is given, the exact number is not on record here.

One test concerns MC-1RB. Nature of the test: cAMP functional receptor assay in COS-7 cells transfected with MC-1RB expression plasmids. The conditions noted are these: for approximate rank order of potency in eliciting the cAMP response: COS-7 cells transiently expressing MC-R1B; for rise in intracellular cAMP formation: maximum agonist concentration, compared to background response in sham-transfected COS-7 cells. The test is classed as cell-based, human. As for the experimental part: cAMP Functional Receptor Assay—Receptor-mediated stimulation of cyclic AMP (cAMP) formation was assayed in COS-7 cells transfected with MC-1RB expression plasmids. Cells expressing MC-1RB were dissociated from tissue culture flasks by rinsing with Ca and Mg free phosphate buffered saline (Life Technologies, Gaithersburg, Md.) and detached following 5 min. incubation with enzyme-free dissociation buffer (Specialty Media, Lavellette, N.J.). Cells were collected by centrifugation and resuspended in Earle's Balanced Salt Solution (EBSS) (Life Technologies, Gaithersburg, Md.) with additions of 10 mM HEPES pH 7.5, 5 mM MgCl2, 1 mM glutamine and 1 mg/ml bovine serum albumin. Cells are counted and diluted to 2 to 4×10^6/ml. The phosphodiesterace inhibitor 3-isobutyl-1-methylxanthine was added at a concentration of 0.6 mM. Test peptides were diluted in EBSS with above additions and 10% DMSO; 0.1 vol of compounds added to 0.9 vol of cells. After room temperature incubation for 40 min., cells are lysed by incubation at 100° C. for 5 min. to release accumulated cAMP. cAMP is measured in an aliquot of the cell lysate with the Amersham (Arlington Heights, Ill.) cAMP detection assay (RPA556).
Previous studies (Mountjoy, et al., 1992, Science 257:1248-1251 [see also U.S. Pat. No. 5,532,347]; Chhajlani and Wikberg, 1992, FEBS Letters 309:417-420) has documented that activation of the MC-1RA isoform by melanocortin agonists results in an elevation of intracellular cAMP production through the coupling of G-proteins to activation of membrane-bound adenylate cyclase.

Test [1] deals with human MC-R1B receptor (splice variant of the human melanocortin-1 receptor, 382 amino acids) (human). In words: cell-based or functional assay.
Test [2] shares this target. In words: displacement of 200 pM [125I]-NDP-αMSH from crude membranes of COS-7 cells expressing human MC-R1B.
Test [3] has the same target. Nature of the test: radioligand binding, membranes of COS-7 cells expressing MC-R1B.

In the case of MT-II, in the test with MC-1RB, the “approximate rank order of potency in eliciting the cAMP response” value (“approximate rank order of potency” for short) is given as “MT-II>NDP-MSH>SHU-9119>αMSH>βMSH>γMSH” and the “rise in intracellular cAMP formation” value is given as around 3 fold.

As for αMSH, in the test with MC-1RB, the “approximate rank order of potency” value is “MT-II>NDP-MSH>SHU-9119>αMSH>βMSH>γMSH” and the “rise in intracellular cAMP formation” value was around 3 fold. Take NDP-αMSH (unlabelled) (peptide): in test [1], the intracellular cAMP formation in COS-7 cells transiently expressing MC-R1B was determined as 3 fold. In test [2], this molecule displayed an IC50 of 0.7 nM.

As to [125I]-NDP-αMSH (peptide), the specific binding (percent of total binding) (% of total binding) in test [3] was above 90.

For the molecule NDP-αMSH, in the test on MC-1RB, the “approximate rank order of potency” value was “MT-II>NDP-MSH>SHU-9119>αMSH>βMSH>γMSH” and the “rise in intracellular cAMP formation” value is around 3 fold.

Molecule MT-II (peptide) came in with an intracellular cAMP formation in COS-7 cells transiently expressing MC-R1B in test [1] of 3 fold. In test [2], the IC50 worked out at 0.2 nM. In test [1], “βMSH (from UniProt P01189 213-234) (peptide)” returned an intracellular cAMP formation in COS-7 cells transiently expressing MC-R1B of 3 fold. As to SHU-9119, the “rise in intracellular cAMP formation” value in the test with MC-1RB is reported as around 3 fold. SHU-9119 (peptide): the intracellular cAMP formation in COS-7 cells transiently expressing MC-R1B in test [1] is 3 fold. For the same molecule, the IC50 in test [2] came out at 0.7 nM. Turning to “βMSH: β-melanocyte stimulating hormone, melanocortin peptide derived from the POMC gene”, in the test on MC-1RB, the “approximate rank order of potency” value is on record as “MT-II>NDP-MSH>SHU-9119>αMSH>βMSH>γMSH” and the “rise in intracellular cAMP formation” value is around 3 fold.

Take “γMSH (from UniProt P01189 77-88) (peptide)”: the intracellular cAMP formation in COS-7 cells transiently expressing MC-R1B in test [1] is 3 fold. In test [2], SYSMEHFRWGKPVGKKRRPVKVYPNGAEDESAEAFPLEF (peptide, UniProt P01189 138-176, looked up) [ACTH] had an IC50 of 5 nM. Consider SYSMEHFRWGKPV (peptide, UniProt P01189 138-150, looked up) [αMSH], for which, in test [1], the intracellular cAMP formation in COS-7 cells transiently expressing MC-R1B turned out to be 3 fold. The IC50 in test [2] worked out at 5 nM.
